One series relates to T1, SEQ ID NO: 50.
T1 sequence: LSGRSDNH

For a further series, the system named is T2, SEQ ID NO: 52.
T2 sequence: LGGSGRSANAILE

A further series has as its system T3, SEQ ID NO: 54.
T3 sequence: GSGRNAQV

In a further series the test system is T4, SEQ ID NO: 51.
T4 sequence: SGRSA

A further series has as its system T5, SEQ ID NO: 53.
T5 sequence: LGGSGRNAQVRLE

Tissue-type Plasminogen Activator (tPA), sequence (P00750 36-562): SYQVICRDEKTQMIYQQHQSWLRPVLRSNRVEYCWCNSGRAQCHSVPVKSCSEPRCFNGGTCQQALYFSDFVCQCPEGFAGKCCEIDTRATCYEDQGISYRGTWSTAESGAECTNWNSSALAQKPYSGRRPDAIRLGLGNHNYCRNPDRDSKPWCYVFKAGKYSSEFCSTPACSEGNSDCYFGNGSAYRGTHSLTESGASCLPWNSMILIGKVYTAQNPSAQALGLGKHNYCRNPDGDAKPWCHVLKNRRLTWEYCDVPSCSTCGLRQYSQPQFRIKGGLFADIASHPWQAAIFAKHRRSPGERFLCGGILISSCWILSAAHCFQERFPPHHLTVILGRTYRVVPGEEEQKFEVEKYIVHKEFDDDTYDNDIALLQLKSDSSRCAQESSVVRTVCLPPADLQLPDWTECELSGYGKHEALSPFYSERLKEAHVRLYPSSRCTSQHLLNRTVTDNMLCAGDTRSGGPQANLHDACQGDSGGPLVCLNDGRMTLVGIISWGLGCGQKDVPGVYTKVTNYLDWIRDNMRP

Regarding “Urokinase-type Plasminogen Activator (uPA)”, the Fold of Increase, fluorescence intensity (FRET cleavage assay) in the series with SEQ ID NO: 50 worked out at 4.9 fold; in the series on SEQ ID NO: 52, 3.1 fold; with SEQ ID NO: 54, 4.7 fold; in the series on SEQ ID NO: 51, 9.6 fold; in the series on SEQ ID NO: 53 it was 3 fold. Also, the Time to Reach Plateau (hr), fluorescence intensity (FRET cleavage assay) in the series with SEQ ID NO: 50 was found to be 1.7 h; with SEQ ID NO: 52 it was 1.4 h; in the series with SEQ ID NO: 54, 1.4 h; in the series with SEQ ID NO: 51 it was 1.8 h; in the series with SEQ ID NO: 53, 1.6 h.
For the substance Tissue-type Plasminogen Activator (tPA), the Fold of Increase, fluorescence intensity; tPA digestion at 2.25 × 10^-2 mg/mL in the series on SEQ ID NO: 50 was 1.1 fold; in the series with SEQ ID NO: 52, 2.1 fold; in the series with SEQ ID NO: 54, 2.6 fold; in the series with SEQ ID NO: 51, 5.4 fold; with SEQ ID NO: 53, 1.3 fold. Also, the Fold of Increase, fluorescence intensity; tPA digestion at 7.5 × 10^-3 mg/mL with SEQ ID NO: 50 stood at 0.63 fold; with SEQ ID NO: 52, 1.2 fold; in the series on SEQ ID NO: 54 it was 0.91 fold; in the series with SEQ ID NO: 51, 2.1 fold; in the series with SEQ ID NO: 53, 0.73 fold.

The values above are taken from patent US20240189442.
